One data set deals with T1, collagen I (Rattus norvegicus, UniProt P02454+P02466).
T1 construct: rat tail collagen I (Corning); purchased Corning; host or cells: rat tail (tissue-extracted)
Nature of the data set: Surface binding of biotinylated molecules to collagen I (streptavidin-HRP). The settings on record: for collagen I binding after incubation (deterioration of binding activity over time): after 2 weeks in 1% BSA at room temperature. As for the experimental part:
(§1) High-binding 96-well plates (Corning) were coated with 50 μg/mL rat tail collagen I (Corning) at 4° C. overnight or 2% reduced growth factor Matrigel (Corning #354230) in basal EBM media for 30 minutes at 37° C. and rinsed 3× with PBS before blocking non-specific binding with 1% Bovine Serum Albumin (BSA) for 1 hour at room temperature. For fibrinogen surfaces, a fibrinogen coating solution of ˜2.75 mg/mL fibrinogen (Sigma) and 5.5 μg/mL aprotinin (Sigma) was incubated at 4° C. overnight in high-binding plates. Biotinylated samples dissolved in 1% BSA were allowed to bind to the surface for 30 minutes at 37° C. on a plate shaker. After 3 washes with PBS, wells were incubated with 1:200 streptavidin-HRP in 1% BSA, rinsed 3× with PBS, developed with a 1:1 A to B color solution for 20 minutes, stopped with the addition 2N H2SO4, and read on a Spectramax M5 platereader for absorbance at 450 nm with 540 nm correction.
(§2) The ability of DS-SILY4 to bind to various protein surface coatings was investigated using streptavidin-HRP detection of bound biotinylated DS-SILY4 molecules. Here we studied collagen and fibrinogen binding properties of the proteoglycan mimics since this proposed therapy is designed to target angiogenic activity to the wound site by tethering to extracellular matrix. Using standard surface coating procedures for collagen (50 μg/mL) and matrigel (2%), ˜7.5 μg/cm^2 rat tail collagen I and ˜28 μg/cm^2 matrigel were allowed to bind to a high bind plate.

Data set [1] concerns matrigel (collagen IV/laminin). Nature of the data set: Surface binding of biotinylated molecules to matrigel (streptavidin-HRP). The settings on record: for matrigel binding after incubation (deterioration of binding activity over time): after 2 weeks in 1% BSA at room temperature; for matrigel binding affinity (relative): comparison between molecules. As for the experimental part: as §1, §2

The next data set addresses T2, fibrinogen (Homo sapiens, UniProt P02671+P02675+P02679).
T2 construct: purchased Sigma
T2 sequence (P02671 20-629 limits assumed): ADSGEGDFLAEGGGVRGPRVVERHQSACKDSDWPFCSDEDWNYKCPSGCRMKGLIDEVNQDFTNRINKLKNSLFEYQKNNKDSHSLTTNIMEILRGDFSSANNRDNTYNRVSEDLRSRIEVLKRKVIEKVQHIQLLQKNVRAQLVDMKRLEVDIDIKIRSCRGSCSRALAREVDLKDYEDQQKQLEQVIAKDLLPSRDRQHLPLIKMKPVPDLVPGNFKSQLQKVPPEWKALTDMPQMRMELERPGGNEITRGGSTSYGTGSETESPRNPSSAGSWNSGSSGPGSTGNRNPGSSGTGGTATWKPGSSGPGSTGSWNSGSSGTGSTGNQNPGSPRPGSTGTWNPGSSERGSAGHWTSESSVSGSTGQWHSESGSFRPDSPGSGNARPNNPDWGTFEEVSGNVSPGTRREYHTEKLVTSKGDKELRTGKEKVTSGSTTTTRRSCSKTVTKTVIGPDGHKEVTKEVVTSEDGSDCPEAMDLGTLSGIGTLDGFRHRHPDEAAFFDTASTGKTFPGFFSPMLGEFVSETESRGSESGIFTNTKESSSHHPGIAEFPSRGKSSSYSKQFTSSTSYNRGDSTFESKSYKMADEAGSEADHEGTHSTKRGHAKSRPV
T2 sequence (P02675 31-491): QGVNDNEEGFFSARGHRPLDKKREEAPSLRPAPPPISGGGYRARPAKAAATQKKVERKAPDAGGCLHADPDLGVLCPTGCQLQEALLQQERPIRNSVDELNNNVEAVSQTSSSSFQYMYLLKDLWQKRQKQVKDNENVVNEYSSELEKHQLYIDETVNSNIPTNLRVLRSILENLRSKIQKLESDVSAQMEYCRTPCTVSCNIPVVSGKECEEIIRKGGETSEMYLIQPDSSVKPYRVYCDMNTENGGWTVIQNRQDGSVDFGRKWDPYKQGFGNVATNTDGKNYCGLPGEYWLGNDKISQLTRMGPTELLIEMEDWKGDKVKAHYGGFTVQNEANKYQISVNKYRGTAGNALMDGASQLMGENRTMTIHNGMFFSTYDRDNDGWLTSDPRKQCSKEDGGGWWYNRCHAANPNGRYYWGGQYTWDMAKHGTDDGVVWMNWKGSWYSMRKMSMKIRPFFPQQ
T2 sequence (P02679 27-433 limits assumed): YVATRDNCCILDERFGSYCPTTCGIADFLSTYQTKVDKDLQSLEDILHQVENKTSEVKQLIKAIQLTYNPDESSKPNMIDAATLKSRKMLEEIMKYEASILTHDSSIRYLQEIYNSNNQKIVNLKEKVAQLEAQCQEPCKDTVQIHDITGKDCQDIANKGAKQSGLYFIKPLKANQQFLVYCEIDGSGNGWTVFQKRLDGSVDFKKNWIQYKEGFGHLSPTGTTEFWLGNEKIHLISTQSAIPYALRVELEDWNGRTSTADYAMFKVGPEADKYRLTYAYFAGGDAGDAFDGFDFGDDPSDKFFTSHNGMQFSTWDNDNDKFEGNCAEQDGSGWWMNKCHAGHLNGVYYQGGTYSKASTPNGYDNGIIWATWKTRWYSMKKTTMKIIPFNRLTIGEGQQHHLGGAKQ
Nature of the data set: Surface binding of biotinylated molecules to fibrinogen (streptavidin-HRP). To be noted: biotinylated molecule, absorbance. As for the experimental part: as §1
The ability of DS-SILY4 to bind to various protein surface coatings was investigated using streptavidin-HRP detection of bound biotinylated DS-SILY4 molecules. Here we studied collagen and fibrinogen binding properties of the proteoglycan mimics since this proposed therapy is designed to target angiogenic activity to the wound site by tethering to extracellular matrix. […]

Data set [2] concerns HMVEC. Nature of the data set: HMVEC attachment to surface-bound molecules (alamarBlue). The class given is cell-based, human. To be noted: low cell densities, both 1 μM and 10 μM surface treatments. As for the experimental part:
(§3) 50 μL, treatments dissolved in 1% BSA in PBS were added to a Biocoat Collagen I 96-well plate (Corning) and incubated for 30 minutes at 37° C. before washing 3 times with PBS to remove unbound treatment. […] To evaluate initial attachment, media was aspirated 5-8 hours after seeding and exchanged with alamarBlue® cell viability reagent (1:10, 110 μL/well, Molecular Probes) and incubated for 2.5 hours at 37° C. according to the manufacturers' protocol. 100 μL from each well was pipetted into a new plate and assayed for fluorescence at 560 nm excitation and 590 nm emission. Remaining reagent was aspirated and replaced with fresh media and the alamarBlue® viability assay was performed every 2 days thereafter for 1 week. To control for initial differences in HMVEC attachment, proliferation data is presented as the alamarBlue® fluorescence signal normalized to the signal at 8 hours.
For orientation: Alamar Blue is a resazurin reagent that responds to reducing activity.

Data set [3] deals with HMVEC. Nature of the data set: HMVEC proliferation in response to surface-bound molecules (alamarBlue). The class given is cell-based, human. On the procedure:
as §3
Both soluble and bound forms of molecules would be present in a dynamic equilibrium in this initial experimental design and the two forms may produce differing effects, and thus we sought to investigate the effects of bound molecules alone. Furthermore, the bioactivity of a collagen-bound form would more directly reflect the application of a targeted pro-angiogenic therapy in a chronic wound. […]

The subject of data set [4] is chick chorioallantoic membrane. Nature of the data set: Ex ovo CAM assay, vascular invasion into collagen gels. The class given is in vivo. The settings on record: both 10 μM and 20 μM embedded gels, vs blank controls. As for the experimental part:
For experiments studying vascular invasion into collagen gels, 30 μL collagen I gels with an embedded 3 mm×3 mm nylon mesh (Fisher) were used. 4-5 gels were placed on each CAM, with 2-3 treatment gels of the same type and 2 blank gels as internal controls to correct for embryo variability. In some embryos, the nylon meshes were dyed to improve visualization of the mesh and vessels growing into the gel. Large (4 cm×10 cm) nylon meshes were dyed by reacting in 226 mL of a 77 mM acetic acid (Sigma) solution with 10 drops of green food coloring (McCormick) or 250 μL of 3 mg/mL Evans blue (Alfa Aesar) at 121° C. for 15 minutes in an autoclave, and then cut to 3 mm×3 mm squares for embedding. Gels were imaged daily through a Dino-Eye AM7025X camera installed on a stereomicroscope; for images more than 2 days after gel implantation, 0.25 mL PBS was pipetted on top of gels to help visualize vessels. […]
In an attempt to better visualize new vasculature invading the implanted collagen gels, we injected ˜100 μL 1 mg/mL high molecular weight fluorescent dextran (70 kDa RITC-dextran) into the CAM vessels 7 days after transplantation, cut out integrated collagen gels and surrounding membrane, and imaged with fluorescence microscopy. […]

In another data set the test system is THP-1 monocytes. Nature of the data set: Attachment of THP-1 monocytes to peptide-treated surfaces. To be noted: biotin-peptide on Avidin-coated wells. In kind it is cell-based. An excerpt: (§4) FIG. 33. Attachment of cells and platelets to LXW7 and GRGD (SEQ ID NO: 2) treated surfaces. (A) Images of attached HCAECs (left panels), THP-1 monocytes (middle panels) and platelets (right panels) on surfaces treated by D-Biotin (a-c) (control), LXW7 (d-f) or GRGD (SEQ ID NO: 2) (g-i). Scale bars in a, b, d, e, g and h are 50 μm. Scale bars in c, f and i are 20 μm. (B) The number of cells or platelets attached on different treated surfaces were quantified and statistical analyses were performed. Data were expressed as mean±standard deviation: **p<0.01 (n=4).
(§5) Using primary artery-derived ECs and blood-derived EPCs as living probes to screen One-Bead-One-Compound (OBOC) combinatorial peptide libraries, several high-affinity binding ligands against the αvβ3 integrin on the surface of EPCs/ECs were identified. […] The LXW7 peptide, when grafted to surfaces, supports adhesion and spreading of EPCs and human coronary ECs, but not platelets or monocytes. […] After washing with PBS and blocking with 1% BSA wells were ready for cell attachment with 5×10^4 HCAECs or THP-1 monocytes suspended in the respective maintenance medium, or freshly isolated platelets at a density of 5×10^7 platelets/cm^2 incubated for 16 h at 37° C., 5% CO2. […] Quantification of images was performed using the Image J software (NIH).

The subject of the next data set is platelets. Nature of the data set: Attachment of platelets to peptide-treated surfaces. The settings on record: biotin-peptide on Avidin-coated wells. The class given is cell-based.
Text: as §4, §5

Non-standard residues stand in square brackets, D forms with d. No end group written: not given here. AEEA = NCCOCCOCC(=O)O

T1 sequence (P02454 152-1207 limits assumed): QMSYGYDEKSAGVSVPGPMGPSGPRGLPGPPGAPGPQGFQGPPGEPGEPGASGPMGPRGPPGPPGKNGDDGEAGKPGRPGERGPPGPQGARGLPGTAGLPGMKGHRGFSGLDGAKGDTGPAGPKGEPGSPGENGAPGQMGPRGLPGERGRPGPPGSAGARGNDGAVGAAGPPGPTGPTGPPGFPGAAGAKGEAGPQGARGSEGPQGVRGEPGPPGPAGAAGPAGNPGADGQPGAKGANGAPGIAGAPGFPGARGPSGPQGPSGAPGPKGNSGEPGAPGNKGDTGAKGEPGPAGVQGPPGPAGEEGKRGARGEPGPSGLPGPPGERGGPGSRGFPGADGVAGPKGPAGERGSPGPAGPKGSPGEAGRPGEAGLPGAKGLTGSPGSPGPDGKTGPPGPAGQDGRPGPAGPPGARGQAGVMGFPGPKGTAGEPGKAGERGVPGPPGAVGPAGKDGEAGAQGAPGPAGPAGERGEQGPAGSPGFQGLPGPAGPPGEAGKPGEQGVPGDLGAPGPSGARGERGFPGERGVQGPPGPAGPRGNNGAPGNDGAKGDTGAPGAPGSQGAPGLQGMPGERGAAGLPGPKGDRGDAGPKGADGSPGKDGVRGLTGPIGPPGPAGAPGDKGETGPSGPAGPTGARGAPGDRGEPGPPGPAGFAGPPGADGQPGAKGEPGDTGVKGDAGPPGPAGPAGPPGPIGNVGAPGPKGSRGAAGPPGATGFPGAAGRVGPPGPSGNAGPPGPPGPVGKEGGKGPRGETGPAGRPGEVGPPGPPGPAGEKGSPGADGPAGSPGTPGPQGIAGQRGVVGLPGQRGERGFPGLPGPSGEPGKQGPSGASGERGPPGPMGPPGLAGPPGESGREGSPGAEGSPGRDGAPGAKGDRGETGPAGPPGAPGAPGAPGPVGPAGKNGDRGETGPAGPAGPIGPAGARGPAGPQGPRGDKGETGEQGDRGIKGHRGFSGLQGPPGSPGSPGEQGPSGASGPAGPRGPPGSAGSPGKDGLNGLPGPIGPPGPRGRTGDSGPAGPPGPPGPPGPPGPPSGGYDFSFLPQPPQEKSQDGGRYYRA
T1 sequence (P02466 86-1125 limits assumed): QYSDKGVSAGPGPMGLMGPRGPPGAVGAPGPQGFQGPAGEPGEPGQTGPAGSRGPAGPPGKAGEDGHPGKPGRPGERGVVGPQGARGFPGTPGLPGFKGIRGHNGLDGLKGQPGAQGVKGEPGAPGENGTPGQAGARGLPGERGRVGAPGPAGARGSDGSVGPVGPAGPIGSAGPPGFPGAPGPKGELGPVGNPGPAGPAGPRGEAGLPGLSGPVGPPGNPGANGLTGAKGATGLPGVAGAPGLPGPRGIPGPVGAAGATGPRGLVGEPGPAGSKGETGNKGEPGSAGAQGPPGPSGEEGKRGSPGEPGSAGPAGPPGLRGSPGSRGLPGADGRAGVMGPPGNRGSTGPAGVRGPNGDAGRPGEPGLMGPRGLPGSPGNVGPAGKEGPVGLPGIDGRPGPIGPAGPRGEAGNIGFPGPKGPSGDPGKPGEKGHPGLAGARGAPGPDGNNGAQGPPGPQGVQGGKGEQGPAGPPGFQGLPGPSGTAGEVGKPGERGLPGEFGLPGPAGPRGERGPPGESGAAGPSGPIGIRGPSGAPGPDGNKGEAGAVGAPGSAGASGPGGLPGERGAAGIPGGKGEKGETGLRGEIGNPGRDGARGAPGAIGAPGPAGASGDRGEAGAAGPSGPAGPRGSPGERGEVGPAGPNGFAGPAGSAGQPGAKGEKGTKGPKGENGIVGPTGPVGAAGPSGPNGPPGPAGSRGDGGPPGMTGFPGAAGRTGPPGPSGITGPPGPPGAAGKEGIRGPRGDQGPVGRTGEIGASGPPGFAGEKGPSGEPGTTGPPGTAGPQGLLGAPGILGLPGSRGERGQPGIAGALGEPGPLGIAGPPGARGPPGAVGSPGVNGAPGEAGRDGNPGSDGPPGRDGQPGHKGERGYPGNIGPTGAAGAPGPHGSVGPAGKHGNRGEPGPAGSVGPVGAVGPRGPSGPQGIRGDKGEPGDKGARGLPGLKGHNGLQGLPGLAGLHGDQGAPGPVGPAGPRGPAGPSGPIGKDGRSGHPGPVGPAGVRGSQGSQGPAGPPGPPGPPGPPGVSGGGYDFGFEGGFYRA

For the substance “(peg2V)2-DS-SILY4: pro-angiogenic decorin mimic, 2 peg2V and 4 SILY per DS (peptide 1 KLTWQELYQLKYKGI[AEEA][AEEA]GSG; peptide 2 RRANAALKAGELYKSILYGSG; also: conjugated to dermatan sulfate: 2 peg2V and 4 SILY per DS, attachment not given here)”, the “collagen I binding after incubation (deterioration of binding activity over time)” value with collagen I is recorded as “higher concentrations are needed to achieve the same binding”. Also, the “collagen I affinity (relative)” value with collagen I (comparison between molecules) was “highest collagen I and matrigel affinities”. For the same substance, in data set [1], the “matrigel binding after incubation (deterioration of binding activity over time)” value was “higher concentrations are needed to achieve the same binding”; the “matrigel binding affinity (relative)” value was “highest collagen I and matrigel affinities”.

Turning to “DS-(peg2V)2: dermatan sulfate with 2 peg2V peptides per DS (KLTWQELYQLKYKGI[AEEA][AEEA]GSG; also: conjugated to dermatan sulfate, 2 peg2V per DS, attachment not given here)”, in the data set with collagen I (comparison between molecules), the “collagen I affinity (relative)” value is reported as “higher affinity for collagen I than DS-SILY4” and the “collagen I binding capacity (relative)” value is recorded as “highest collagen I binding capacity of all the molecules studied”. The “matrigel binding affinity (relative)” value in data set [1] is on record as “similar”.

Turning to “DS-SILY4: decorin mimic composed of a dermatan sulfate backbone and 4 SILY substitutions per DS (RRANAALKAGELYKSILYGSG; also: conjugated to dermatan sulfate, 4 SILY per DS, attachment not given here)”, in the data set with collagen I, the “collagen I binding after incubation (deterioration of binding activity over time)” value is reported as “this shift was also observed”. For the same substance, the “binding capacity to collagen I” value with collagen I (biotinylated molecule, absorbance) is on record as 1.6 AU. The “matrigel binding after incubation (deterioration of binding activity over time)” value in data set [1] was “increased matrigel binding capacity after the 2 week incubation”. Also, the “binding capacity to collagen IV/laminin” value in data set [1] (biotinylated molecule, matrigel coating, absorbance) is listed as 1.1 AU. For the same substance, in the data set with fibrinogen, the “binding capacity to fibrinogen” value worked out at 0.30 AU. In the data set on HMVEC [2], the “decrease in HMVEC attachment compared to a BSA blocked collagen surface” value turned out to be 7%. The “endothelial proliferation vs untreated collagen” value is “only statistically significant over no treatment when compared in media lacking VEGF” with HMVEC [3] (1 μM surface treatment); “significantly improved proliferation in media with and without VEGF” in the data set on HMVEC [3] (10 μM surface treatment). In data set [4], the “gel vascularity / vascularized gel area” value was “very slight increase in gel vascularity that was not statistically significant over the blank controls”.

Turning to GRGD [RGD peptide, reference compound], the “monocyte binding to treated surface” value in the data set with THP-1 monocytes was “generally supported monocyte and platelet binding”. Besides, the “platelet binding to treated surface” value with platelets was “generally supported monocyte and platelet binding”.

These data come from US12485182B2, “Proteoglycan mimetics for enhanced wound healing, angiogenesis, and vascular repair” (The Regents of the University of California, priority 2018, dated 2025).
